In US20130129701, “Methods and Compositions for Sequence Specific RNA Endonucleases” (published 2013):

T1: PUF-R6(SYxxR) purified (Homo sapiens, UniProt Q14671 Q14671:828-1176, N1043S/Q1047R)
T1 sequence: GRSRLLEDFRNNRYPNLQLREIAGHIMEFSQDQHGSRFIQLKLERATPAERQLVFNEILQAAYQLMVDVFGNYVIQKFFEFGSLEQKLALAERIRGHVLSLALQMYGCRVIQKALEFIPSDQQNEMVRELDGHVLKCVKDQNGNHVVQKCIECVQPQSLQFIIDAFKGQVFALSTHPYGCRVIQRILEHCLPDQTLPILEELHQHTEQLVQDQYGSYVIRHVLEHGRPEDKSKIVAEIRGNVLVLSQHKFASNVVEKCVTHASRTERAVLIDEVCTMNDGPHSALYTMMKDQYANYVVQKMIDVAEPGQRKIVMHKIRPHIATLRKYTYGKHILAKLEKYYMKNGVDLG


Key:
PUF-R6(SYxxR) purified [1] = target: T1, PUF-R6(SYxxR) purified; test: structure; PDB 2yjy
Experimental: Crystals of PUF-R6(SYxxR) mutant and C3 RNA (5′-[…]) were grown by sitting drop vapor diffusion. RNA oligonucleotide was obtained from Dharmacon (Lafayette, Colo.). The protein-RNA complex was prepared by mixing a 1:1.1 molar ratio of purified protein (3.5 mg/ml) and RNA in a buffer containing 20 mM Tris-HCl, pH 7.5; 100 mM NaCl; and 1 mM DTT. One μl of complex solution was added to 1 μl of a well solution containing 30% PEG 3350, 0.2M ammonium tartrate dibasic, and 0.1M bis-Tris, pH 5.5. Crystals were flash frozen after adding an equal volume of cryoprotectant solution (32% PEG 3350, 20% ethylene glycol) to the drop. Diffraction data were collected at the SER-CAT beamline ID-22, Advanced Photon Source at wavelength 1.0 Å and −180° C. All data sets were indexed, integrated, and scaled with the HKL2000 suite (21). The structure was determined by molecular replacement using the structure of human Pumilio1 (PDB ID: 1M8Y) as a search model with PHASER (22). Two complexes are present in the asymmetric unit. Iterative model building was performed with COOT (23), and the resulting models were refined with PHENIX (24). All Phi-Psi angles are within allowable regions of the Ramachandran plot. The atomic coordinates and structure factors have been deposited in the Protein Data Bank (PDB ID: 2yjy).

PUF-R6(SYxxR) purified [2] = target: T1, PUF-R6(SYxxR) purified; test: EMSA; 0.2 uM protein, 1 nM biotinylated RNA, 1 mM MgCl2, room temperature
Experimental: Protein concentration was determined by Bradford assay. RNAs were generated by in vitro transcription and purified on denaturing gels. 50 pmol of RNAs were labeled at the 3′ end with biotinylated cytidine bisphosphate using T4 RNA ligase following manufacturer's directions (Thermo Scientific Pierce RNA 3′ End Biotinylation Kit). In each sample, 20 fmol of labeled RNA (1 nM) and 4 pmol of proteins (0.2 μM) were incubated in binding buffer (10 mM HEPES, pH 7.3, 20 mM KCl, 1 mM MgCl₂, 1 mM DTT, and 0.1 g/L tRNA) for 1 hour at room temperature. The binding reactions were separated by electrophoresis on 6% nondenaturing PAGE run with 1×TBE at 4° C., transferred to nylon membranes, and crosslinked to the membrane by UV. Biotin-labeled RNA was detected by chemiluminescence using the Thermo Scientific LightShift Chemiluminescent RNA EMSA Kit following manufacturer's directions.

| Binder | binding result (PUF-R6(SYxxR) purified [1]) | binding result (PUF-R6(SYxxR) purified [2]) |
| --- | --- | --- |
| AUUGCAUAUA (ssRNA) [C3 RNA crystallization 10-mer] | binds | – |
| UGCAUAUA (ssRNA) [C3 RNA] | – | binds |
